The values that follow come from patent publication US20260234247A1 (published 2026).

Broadly, the EC50 is the concentration giving half of the maximal effect. The low end stands for greater potency, the high end for weaker potency.

The target in experiment [1] is T1, human LILRB1 on CHOK1 cells (human, UniProt Q8NHL6 24-650).
T1 construct: whole, on cells; also called CHOK1-hLILRB1; CHOK1-LILRB1
Description: FACS binding, CHOK1-hLILRB1 cells.

In experiment [2] the target is T2, human LILRB2 on CHOK1 cells (human, UniProt Q8N423 22-597).
T2 construct: whole, on cells; also called CHOK1-hLILRB2; CHOK1-LILRB2
T2 sequence (Q8N423 22-597): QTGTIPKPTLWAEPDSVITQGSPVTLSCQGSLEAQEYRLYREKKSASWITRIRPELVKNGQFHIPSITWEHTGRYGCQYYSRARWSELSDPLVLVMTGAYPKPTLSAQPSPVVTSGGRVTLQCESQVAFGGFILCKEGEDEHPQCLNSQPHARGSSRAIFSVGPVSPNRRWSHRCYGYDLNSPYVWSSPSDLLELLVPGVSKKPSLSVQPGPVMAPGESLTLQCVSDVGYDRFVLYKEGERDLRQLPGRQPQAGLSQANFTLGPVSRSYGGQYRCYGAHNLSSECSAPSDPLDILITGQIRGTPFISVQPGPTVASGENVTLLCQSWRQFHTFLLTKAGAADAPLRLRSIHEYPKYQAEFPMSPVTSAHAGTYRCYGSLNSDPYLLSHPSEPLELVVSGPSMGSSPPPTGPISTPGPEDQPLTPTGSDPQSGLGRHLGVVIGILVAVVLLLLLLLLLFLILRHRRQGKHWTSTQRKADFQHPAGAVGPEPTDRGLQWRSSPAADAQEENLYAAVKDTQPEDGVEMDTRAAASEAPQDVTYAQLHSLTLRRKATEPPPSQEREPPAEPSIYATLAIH
Description: FACS binding, CHOK1-hLILRB2 cells.

Experiment [3] deals with T1, human LILRB1 on CHOK1 cells. Description: cell-based RBA (FACS): blocking of HLA-G binding to CHOK1-hLILRB1 cells.

T1 sequence (Q8NHL6 24-650): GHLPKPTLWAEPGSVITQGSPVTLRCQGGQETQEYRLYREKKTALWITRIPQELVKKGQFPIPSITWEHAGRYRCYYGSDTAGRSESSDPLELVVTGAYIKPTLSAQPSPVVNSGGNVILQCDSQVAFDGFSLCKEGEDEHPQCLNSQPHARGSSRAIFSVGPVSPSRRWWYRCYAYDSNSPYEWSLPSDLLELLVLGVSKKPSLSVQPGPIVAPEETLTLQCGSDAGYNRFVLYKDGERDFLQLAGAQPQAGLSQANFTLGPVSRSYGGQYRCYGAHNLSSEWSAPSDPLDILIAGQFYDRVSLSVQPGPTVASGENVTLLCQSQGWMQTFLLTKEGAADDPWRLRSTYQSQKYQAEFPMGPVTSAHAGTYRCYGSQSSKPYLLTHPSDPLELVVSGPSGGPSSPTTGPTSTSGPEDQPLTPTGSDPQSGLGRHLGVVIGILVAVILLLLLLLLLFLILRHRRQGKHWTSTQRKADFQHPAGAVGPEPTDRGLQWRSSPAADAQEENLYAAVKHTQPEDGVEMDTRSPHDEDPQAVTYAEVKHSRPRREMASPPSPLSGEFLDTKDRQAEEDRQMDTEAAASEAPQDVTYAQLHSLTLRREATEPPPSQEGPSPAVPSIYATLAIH

B1: LK-RB1-25 (antibody, human IgG4 S228P, kappa, V domains shown)
VH: QIQLVQSGPELKKPGETVKISCKASGYTFTSYGMNWMKQAPGEGLKWMGWINTYSGVPTYADDFKGRFAFSLETSATTVYLQINNLKNEDKATYFCARRGRDSVVGHFDVWGTGTTVTVSS
VL: DIVMTQSHKFMSTSVGDRVSITCKASQDVNTAVAWYQQKPGQSPKLLIYWASTRHTGVPDRFTGSGSGTDFTLTISSVQAEDLALYYCQQHYTIPFTFGSGTKLEIKR
Turning to B1, the EC50 in experiment [1] is 1.07 nM. The binding result in experiment [2] is recorded as “no binding”. Moreover, in experiment [3], the 50% effective concentration (EC50) stood at 0.62 nM and the “Top Inhibition (%)” value came to 98.1%.

B2: LK-RB1-33 (antibody, human IgG4 S228P, kappa, V domains shown)
VH: QIQLVQSGPELKKPGDTVKISCKASGYTFTSYGMNWVKQAPGEGLKWMGWINTYSGVPTYGDDFKGRFAFSLETSASTAYLQINNLENEDTATYFCARRGRDSVVGHFDVWGTGTTVTVSS
VL: DIVMTQSHKFMSTSVGDRVSITCKASQDVNTAVAWYQQKPGQSPKLLIYWASTRHTGVPDRFTGSGSGTDFTLTISSVQAEDLALYYCQQHYTIPFTFGSGTRLEIKR
B2 registered a 50% effective concentration (EC50) in experiment [1] of 1.13 nM. Also, the binding result in experiment [2] was “no binding”. Also, in experiment [3], the EC50 is 1.38 nM and the “Top Inhibition (%)” value was 92.7%.

B3: LK-RB1-21 (antibody, human IgG4 S228P, kappa, V domains shown)
VH: QVQLQQPGAELVKPGASVKMSCKASGYIFTDYWTTWVKQRPGQGLEWIGDIYPVSGSTNYNEKFKNKATLTVDTSSSTAYMQLSSLTSEDSAVYYCARALGRRYYFDYWGQGTTLTVSS
VL: DIVMTQSHKFMSTSIGDRVSITCKASQDVSTAVAWCQQKPGQSPKSLIYSASYRYTGIPDRFTGSGSGTDFTFTISSVQAEDLAVYYCQQHYTNPVTFGTGTKLELKR
B3: the figures for the concentration for a half-maximal effect (EC50) in experiment [1] and in experiment [3] were 1.88 nM and 0.53 nM, respectively. Also, in experiment [2], the binding result is on record as “no binding”. Further, in experiment [3], the “Top Inhibition (%)” value worked out at 98.1%.

B4: LK-RB1-55 (antibody, human IgG4 S228P, kappa, V domains shown)
VH: EVKLVESGGGLVQPGGSLKLSCAASGFTFSDYYMYWVRQTPEKRLEWVAYISNGGDITFYPDTVKGRFTISRDNARSTLYLQMSRLKSEDTAIYYCASATTEVGAMDHWGQGTSVTVSS
VL: DIVMTQSQKFMSTTVGDRVSITCKASQNVGTAVAWYQQKPGKSPKLLIYAASNRYTGVPDRFTGSGSGTDFTLTISNMQSEDLADYFCQQYSSYRTFGGGTNLEIKR
The molecule B4 came in with a 50% effective concentration (EC50) in experiment [1] of 1.68 nM. The binding result in experiment [2] is reported as “no binding”. Moreover, in experiment [3], the EC50 was found to be 1.26 nM and the “Top Inhibition (%)” value turned out to be 92.6%.

B5: LK-RB1-48 (antibody, human IgG4 S228P, kappa, V domains shown)
VH: EVKLVESGGGLVQPGGSLKLSCAASGFTFSDYYMYWVRQTPEKRLEWVAYISNGGGISFYPDTVKGRFTISRDNAKNTLYLQMSRLKSEDTAIYYCASATKEVGAMDYWGQGTSVTVSS
VL: DIVMTQSQKFLSTTVGDRVSITCKASQNVGTAVAWYQQKPGQSPKILIYSASNRYTGVPDRFTGSGSGTDFTLTISNMQSEDLADYFCQQYSSYRTFGGGTKLEIKR
As for B5, a half-maximal effect in experiment [1] (EC50) was put at 1.06 nM. In experiment [2], the binding result was “no binding”. Besides, in experiment [3], a half-maximal effect (EC50) was put at 1 nM and the “Top Inhibition (%)” value came to 86.7%.

B6: LK-RB1-34 (antibody, human IgG4 S228P, kappa, V domains shown)
VH: QVQLQQSGAELVKPGASVKLSCKASGYTFTEYTIHWVKQRSGQGLEWIGWFYPGSDSIKYNEKFKDKATLTADKSSSTVYMELSRLTSEDSAVYFCSRHEGPYFTSQYYFDYWGQGTTLTVSS
VL: DILLTQSPAILSVSPGERVSFSCRASRYIGTSIHWYQQRTNGSPRLLIKYASESISGIPSRFSGSGSGTDFTLSINSVESEDIADYYCQQSNTWPLTFGAGTKLELKR
Regarding B6, in experiment [1], the concentration giving a half-maximal response (EC50) turned out to be 1.56 nM. In addition, the binding result in experiment [2] is on record as “no binding”. For the same molecule, in experiment [3], it took 3.69 nM to reach a half-maximal effect (EC50) and the “Top Inhibition (%)” value was 21.7%.

B7: LK-RB1-29 (antibody, human IgG4 S228P, kappa, V domains shown)
VH: QVQLKESGPGLVAPSQNLAITCTVSGFSLTNSGVSWVRQSPGKGLEWLGIIWGDGNTNYHSALISRLSISKDNSKSQVFLKLNSLQTDDTGTYYCAKPNWDYYALDYWGQGTSVTVSS
VL: DIQMTQTASSLFASLGDRVTISCRASQDISNYLNWYQQKPDGSIKLLISYTSRLHSGVPSRFSGSGSGTDYSLSISNLEQEDIATYFCQQGISLPCTFGGGTKLEVNR
For B7, a half-maximal response in experiment [1] (EC50) required 2.38 nM. Moreover, the binding result in experiment [2] was “no binding”. Also, in experiment [3], it took 2.93 nM to reach a half-maximal effect (EC50) and the “Top Inhibition (%)” value worked out at 93.3%.

B8: LK-RB1-23 (antibody, human IgG4 S228P, kappa, V domains shown)
VH: QVQLQQTGAELVRPGSSVKLSCKASGYTFTNYWMDWVKQRPGQGLEWIGNIHPFGNETHYNQKFKDKATLTVDKSSSTAYMQLSSLTSEDSAVYYCARGLLLYFDVWGTGTTVTVSS
VL: DIQMTQSPASQSVSVGETVTITCRASENIYSNLAWYQQKQGKSPQLLVYGATNLADGVSLRFSGSGSGTQYSLKINSLQSEDFGSYYCQHFWGIPWTFGGGTKLEIKR
As to B8, the 50% effective concentration (EC50) in experiment [1] was determined as 0.73 nM. Also, the binding result in experiment [2] is reported as “no binding”. In addition, in experiment [3], a half-maximal response (EC50) required 0.56 nM and the “Top Inhibition (%)” value was 95.3%.

B9: LK-RB1-27 (antibody, human IgG4 S228P, kappa, V domains shown)
VH: QVQLQQSGPELVKPGASVRMSCKASGYTFTSHYIHWMKQRPGQGLEWIGWIYPGDGHTKYHEKFKDRATLTADTSSITAYMRLSSLTSEDSAIYYCVYYSDSWFPYWGQGTLVTVSA
VL: DIQMTQSPASLSVSVGETVTITCRASENIYSNLAWYQQKQGKSPHLLVYAATNLADGVPSRFSGSGSGTQYSLKINSLQSEDFGNYYCQHFWGSPWTFGGGTKLEIKR
B9: the 50% effective concentration (EC50) is 0.71 nM in experiment [1], 4.95 nM in experiment [2] and 0.9 nM in experiment [3]. Besides, the “Top Inhibition (%)” value in experiment [3] was found to be 98.7%.

B10: LK-RB1-22 (antibody, human IgG4 S228P, kappa, V domains shown)
VH: QVQLKESGPGLVAPSQSLSITCTVSGFSLTSYGVSWVRQPPGKGLEWLGIIWGDGNTNYHSALTSRLSISKDNSKSQVFLKLNSLRTDDTATYYCAKPHWDHYSMDYWGQGTSVTVSS
VL: DIQMTQTTSSLSASLGDRVTISCRASQDISNFLNWYQQKPDGTVKLLIYYTSRLHSGAPSRFSGSGSGTDYSLTISNLDQEDIATYFCQQGNTLPLTFGAGTKLELKR
Turning to B10, it took 1.76 nM to reach a half-maximal effect in experiment [1] (EC50). Besides, the binding result in experiment [2] is reported as “no binding”. In experiment [3], a half-maximal effect (EC50) was put at 1.4 nM and the “Top Inhibition (%)” value came to 100%.

B11: LK-RB1-26 (antibody, human IgG4 S228P, kappa, V domains shown)
VH: QVQLKESGPGLVAPSQSLSITCTVSGFSLTSYGVSWVRQPPGKGLEWLGIIWGDGSTNYHSALISRLSISKDNSKSQVFLKLNSLQTDDTATYYCAKPNWDYYAMDYWGQGTSVTVSS
VL: DIQMTQTTSSLSASLGDRVTISCRASQDISNFLNWYQQKPDGTFKLLISYTSTLHSGVPSRFSGSGSGTDYSLTISNLEQEDVATYFCQQGNTLPLTFGAGTKLALKR
As for B11, the EC50 came to 0.51 nM in experiment [1] and 0.69 nM in experiment [3]. For the same molecule, the binding result in experiment [2] was “no binding”. Also, the “Top Inhibition (%)” value in experiment [3] worked out at 99.6%.

B12: LK-RB1-30 (antibody, human IgG4 S228P, kappa, V domains shown)
VH: QVQLKESGPGLVAPSQSLSITCTVSGFSLTSYGVSWIRQPPGKGLEWLGVIWGDGNTNYHSALISRLSISKDNSKSQVFLKLNSLQTDDTATYYCAKPSWDYYAMDYWGQGTSVTVSS
VL: VIQMTQTTSSLSASLGDRVTISCRASQDISNYVNWYQQRPDGTVKLLISYTSRLHSGVPSRFSGSGSGTDYSLTITNLEQEDIATYFCQQGITLPCTFGGGTKLEINR
Turning to B12, the EC50 in experiment [1] amounted to 1.06 nM; in experiment [3] it was 0.7 nM. Further, the binding result in experiment [2] is given as “no binding”. The “Top Inhibition (%)” value in experiment [3] was found to be 95.6%.

B13: LK-RB1-47 (antibody, human IgG4 S228P, kappa, V domains shown)
VH: QIQLVQSGPELKKPGETVKISCKASGYTFTTYGMSWVKQAPGKGLKWMGWINTYSGVPTYTDDFKGRFAFSVETSASTAYLQINNLKNEDTATYFCARRERDFYGNIFFPYWGQGSLVTVSA
VL: DIQMTQTTSSLSASLGDRVTISCRASQDISNYLNWYQQKPDGTVKLLIYYTSRIHSGVPSRFSGSGSGTDFSLTISNLDQEDIATYFCQQGHTLPWTFGGGTKVEIKR
With B13, a half-maximal response in experiment [1] (EC50) required 1.13 nM. The binding result in experiment [2] is recorded as “no binding”. In addition, in experiment [3], the response was half-maximal at 1.59 nM (EC50) and the “Top Inhibition (%)” value was found to be 99%.

B14: LK-RB1-24 (antibody, human IgG4 S228P, kappa, V domains shown)
VH: QVQLQQPGAELVNPGTSVNLSCKASGYTFTGYWMHWVKQRPGQGLEWIGMIHPNNGGTIYNERFNGKATLTVDRSSTTAYIQLSSLTSEDSAVYYCAYWDLDYWGQGTTLTVSS
VL: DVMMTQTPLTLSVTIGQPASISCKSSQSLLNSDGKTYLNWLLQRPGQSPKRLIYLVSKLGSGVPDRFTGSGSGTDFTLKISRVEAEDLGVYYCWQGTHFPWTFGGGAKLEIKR
With B14, the 50% effective concentration (EC50) in experiment [1] turned out to be 1.48 nM; in experiment [2], 1.04 nM; in experiment [3], 9.07 nM. Also, the “Top Inhibition (%)” value in experiment [3] was found to be 64.8%.

B15: LK-RB1-42 (antibody, human IgG4 S228P, kappa, V domains shown)
VH: QVQLQQPGAELVKPGTSVKLSCKASGYSFISYWVYWVKQRPGQGLEWIGMIHPNSGSTNFNEKFRYKATLTVDKSSSTAYIQLSSLTSEDSAVYYCGRSDDGYPYHAMDSWGQGTSVTVSS
VL: DIVMTQSQKFMSTSVGDRVSVTCKASQNVGTNVAWYQQKPGQSPKALIYSASYRFSGVPDRFTGSGSGTDFTLTIGNVQSEDLAEYFCHQYKNYPLTFGGGTKLEIKR
As to B15, the EC50 in experiment [1] was 0.89 nM. For the same molecule, the binding result in experiment [2] is recorded as “no binding”. For the same molecule, in experiment [3], a half-maximal response (EC50) required 4.5 nM and the “Top Inhibition (%)” value stood at 62.2%.

B16: LK-RB1-39 (antibody, human IgG4 S228P, kappa, V domains shown)
VH: EVQLQQSGAELVRPGASVKLSCTASGFNIKDDYVHWVNQRPEQGLEWIGWIDPENGDTGYASKFQDKATITADTSSNTAYLHLSSLTSEDTAVYYCTTTRWTGSYWGQGTTLTVSS
VL: QIVLTQSPAIMSASPGEKVTITCSASSSVNYMHWFQQKPGSSPKLWIYSTANLASGVPARFSGSGSGTSYSLTISRMEAEDAATYYCQQRSSYPPTWTFGGGTKLEIKR
Regarding B16, the values for the concentration giving a half-maximal response (EC50) in experiment [1], in experiment [2] and in experiment [3] were 0.77 nM, 0.17 nM and 0.68 nM, respectively. Moreover, the “Top Inhibition (%)” value in experiment [3] was found to be 95.7%.
